From patent US20130323249A1 (published 2013) come the findings set out here.

The target of the experiment is human PD-L1 expressed on the surface of cells (human, UniProt Q9NZQ7 19-290). Briefly: FACS binding to human lymphocytes. Background: A flow cytometer gives signals particle by particle.
human PD-L1 expressed on the surface of cells, sequence (Q9NZQ7 19-290): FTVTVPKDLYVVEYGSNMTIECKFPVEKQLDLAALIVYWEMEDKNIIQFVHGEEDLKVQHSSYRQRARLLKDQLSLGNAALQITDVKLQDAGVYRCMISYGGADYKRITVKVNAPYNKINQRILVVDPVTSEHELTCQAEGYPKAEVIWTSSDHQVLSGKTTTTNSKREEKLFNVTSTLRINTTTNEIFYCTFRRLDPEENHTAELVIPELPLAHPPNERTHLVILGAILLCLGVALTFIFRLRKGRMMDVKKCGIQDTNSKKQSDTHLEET

B1: H6 anti-PD-L1 antibody (antibody, V domains shown)
VH: QMQLVQSGAEVKKPGSSVKVSCKASGGTFSSYAISWVRQAPGQGLEWMGGIIPIFGTANYAQKFQGRVTITADESTSTAYMELSSLRSEDTAVYYCARGNIVATITPLDYWGQGTLVTVSS
VL: SYELMQPPSVSVAPGKTATIACGGENIGRKTVHWYQQKPGQAPVLVIYYDSDRPSGIPERFSGSNSGNTATLTISRVEAGDEADYYCQVWDSSSDHRIFGGGTKLTVL
Turning to B1, the response was half-maximal at 0.03 µg/mL (EC50).

B2: H10 anti-PD-L1 antibody (antibody, V domains shown)
VH: EVQLVQSGGGLVQPGGSLRLSCAASGFTFSSYSMNWVRQAPGKGLEWVSYISSSSSTIYYADSVKGRFTISRDNAKNSLYLQMNSLRDEDTAVYYCARGDYYYGMDVWGQGTTVTVSS
VL: EIVLTQSPSSLSASIGDRVTLTCRASQSIRRFLNWYQQKPGKAPELLIYTASSLQSGVPSRFSGSGSGTDFTLTINSLQPEDFATYYCQQSYAVSPYTFGQGTKVEIR
Regarding B2, the EC50 worked out at 0.021 µg/mL.

A word on the EC50: it is the midpoint of the concentration-response curve. Read a low EC50 as a more potent agent.
